Patent publication US20230212319A1, “NOVEL ANTIGEN BINDING DOMAINS AND SYNTHETIC ANTIGEN RECEPTORS INCORPORATING THE SAME” (University of Southern California, priority 2020, published 2023)

B1: 22019 (protein)
chain: MALPVTALLLPLALLLHAARPLEGKPIPNPLLGLDSTGSGEDLKNVFPPEVAVFEPSKAEIAHTQKATLVCLATGFYPDHVELSWWVNGKEVHSGVCTDPQPLKEQPALNDSRYCLSSRLRVSATFWQNPRNHFRCQVQFYGLSENDEWTQDRAKPVTQIVSAEAWGRADCGITSASYHQGVLSATILYEILLGKATLYAVLVSALVLMAMVKRKDSRGRAKRSGSGATNFSLLKQAGDVEENPGPTSTMALPVTALLLPLALLLHAARPQLQLQESGPGLVKPSETLSLTCTVSGDSISSGDYYWGWIRQPPGKGLEWIGHIYYSGVTYYNPSLKSRVTISVDTSRNQFSLKLSSVTAADTAVYYCTREDSSNWRSRGQGTLVTVSSLESGGGGSFEVQLLESGGGLIQPGGSLRLSCAASGFTFSSHAMTWVRQAPGKGLEWVSAISGSGDYTHYADSVKGRFTISRDNSKNTVYLQMNSLRAEDSAVYYCAKDEDGGSLLGHRGQGTLVTVSSTREQKLISEEDGSGIQNPDPAVYQLRDSKSSDKSVCLFTDFDSQTNVSQSKDSDVYITDKCVLDMRSMDFKSNSAVAWSNKSDFACANAFNNSIIPEDTFFPSSDVPCDVKLVEKSFETDTNLNFQNLSVIGFRILLLKVAGFNLLMTLRLWSSRAKRSGSGVKQTLNFDLLKLAGDVESNPGPSRGHMTEYKPTVRLATRDDVPRAVRTLAAAFADYPATRHTVDPDRHIERVTELQELFLTRVGLDIGKVWVADDGAAVAVWTTPESVEAGAVFAEIGPRMAELSGSRLAAQQQMEGLLAPHRPKEPAWFLATVGVSPDHQGKGLGSAVVLPGVEAAERAGVPAFLETSAPRNLPFYERLGFTVTADVEVPEGPRTWCMTRKPGA
B2: 22021 (protein)
chain: MALPVTALLLPLALLLHAARPQLQLQESGPGLVKPSETLSLTCTVSGDSISSGDYYWGWIRQPPGKGLEWIGHIYYSGVTYYNPSLKSRVTISVDTSRNQFSLKLSSVTAADTAVYYCTREDSSNWRSRGQGTLVTVSSLESGGGGSFEEVQLLESGGGLVQPGGSLRLSCAASGFTFSSYAMSWVRQAPGKGLEWVSSISGSGDYIYYADSVKGRFTISRDISKNTLYLQMNSLRAEDTAVYYCAKEGTGANSSLADYRGQGTLVTVSSTRIQNPDPAVYQLRDSKSSDKSVCLFTDFDSQTNVSQSKDSDVYITDKCVLDMRSMDFKSNSAVAWSNKSDFACANAFNNSIIPEDTFFPSPESSCDVKLVEKSFETDTNLNFQNLSVIGFRILLLKVAGFNLLMTLRLWSSRAKRSGSGVKQTLNFDLLKLAGDVESNPGPSRGHMTEYKPTVRLATRDDVPRAVRTLAAAFADYPATRHTVDPDRHIERVTELQELFLTRVGLDIGKVWVADDGAAVAVWTTPESVEAGAVFAEIGPRMAELSGSRLAAQQQMEGLLAPHRPKEPAWFLATVGVSPDHQGKGLGSAVVLPGVEAAERAGVPAFLETSAPRNLPFYERLGFTVTADVEVPEGPRTWCMTRKPGA
B3: 22035 (protein)
chain: MALPVTALLLPLALLLHAARPQLQLQESGPGLVKPSETLSLTCTVSGDSISSGDYYWGWIRQPPGKGLEWIGHIYYSGVTYYNPSLKSRVTISVDTSRNQFSLKLSSVTAADTAVYYCTREDSSNWRSRGQGTLVTVSSLDSGGGGSFEQLQLQESGPGLVKPSETLSLTCTVSGGSISSGDYYWGWIRQPPGKGLEWIGHIYYSGATYYNPSLKSRVTISVDTSRNQFSLKLSSVTAADTAVYYCTRDDSSNWRSRGQGTLVTVSSTRIQNPDPAVYQLRDSKSSDKSVCLFTDFDSQTNVSQSKDSDVYITDKTVLDMRSMDFKSNSAVAWSNKSDFACANAFNNSIIPEDTFFPSPESSCDVKLVEKSFETDTNLNFQNLSVIGFRILLLKVAGFNLLMTLRLWSSRAKRSGSGVKQTLNFDLLKLAGDVESNPGPSRGHMTEYKPTVRLATRDDVPRAVRTLAAAFADYPATRHTVDPDRHIERVTELQELFLTRVGLDIGKVWVADDGAAVAVWTTPESVEAGAVFAEIGPRMAELSGSRLAAQQQMEGLLAPHRPKEPAWFLATVGVSPDHQGKGLGSAVVLPGVEAAERAGVPAFLETSAPRNLPFYERLGFTVTADVEVPEGPRTWCMTRKPGA
B4: 22046 (protein)
chain: MALPVTALLLPLALLLHAARPQLQLQESGPGLVKPSETLSLTCTVSGDSISSGDYYWGWIRQPPGKGLEWIGHIYYSGVTYYNPSLKSRVTISVDTSRNQFSLKLSSVTAADTAVYYCTREDSSNWRSRGQGTLVTVSSLESGGGGSFEEVQLLESGGGLVQPGGSLRLSCAASGFTFSSYAMSWVRQAPGKGLEWVSSISGSGDYIYYADSVKGRFTISRDISKNTLYLQMNSLRAEDTAVYYCAKEGTGANSSLADYRGQGTLVTVSSTRDKTHTCPPCPAIPEDTFFPSPESSCDVKLVEKSFETDTNLNFQNLSVIGFRILLLKVAGFNLLMTLRLWSSRAKRSGSGVKQTLNFDLLKLAGDVESNPGPSRGHMTEYKPTVRLATRDDVPRAVRTLAAAFADYPATRHTVDPDRHIERVTELQELFLTRVGLDIGKVWVADDGAAVAVWTTPESVEAGAVFAEIGPRMAELSGSRLAAQQQMEGLLAPHRPKEPAWFLATVGVSPDHQGKGLGSAVVLPGVEAAERAGVPAFLETSAPRNLPFYERLGFTVTADVEVPEGPRTWCMTRKPGA

Columns and labels:
Format in all cases: cell-based
RAJI cells = test: JNG assay, co-culture with RAJI cells; conditions: JNG cells expressing construct, co-culture with Raji
In short: (§1)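 Jurkat NFAT-GFP (JNG) cells stably transduced with SARs by lentivirus, with drug selection where the construct carried a resistance gene, then co-cultured with target cells at E:T ~1:2 for ~4–18 h. % GFP-positive cells measured by FACS against parental JNG; +/- to 5+ correspond to ~5–50% GFP-positive.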

Nalm6 cells = test: JNG assay, co-culture with Nalm6 cells; conditions: co-culture with Nalm6
In short: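 Drug-selected populations of SAR-expressing Jurkat-NFAT-GFP cells meet target cells (about 1:2 E:T) for roughly 4–18 h. Flow cytometry gives % GFP+ cells, graded +/- to 5+ (≈5% to ≈50%) relative to the parental control.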

L363 cells = test: JNG assay, co-culture with L363 cells; conditions: co-culture with L363
In short: as §1

Molecule	NFAT-GFP ASSAY: Raji (RAJI cells)	NFAT-GFP ASSAY: Nalm6 (Nalm6 cells)	NFAT-GFP ASSAY: L363 (L363 cells)
B1	+ (refer to approximately 5%, 10%, 20%, 30%, 40% and 50% GFP positive cells)	+/- (refer to approximately 5%, 10%, 20%, 30%, 40% and 50% GFP positive cells)	+ (refer to approximately 5%, 10%, 20%, 30%, 40% and 50% GFP positive cells)
B2	Raji (+/-), Nalm6 (+/-), L363 (+/-) (refer to approximately 5%, 10%, 20%, 30%, 40% and 50% GFP positive cells)	Raji (+/-), Nalm6 (+/-), L363 (+/-) (refer to approximately 5%, 10%, 20%, 30%, 40% and 50% GFP positive cells)	Raji (+/-), Nalm6 (+/-), L363 (+/-) (refer to approximately 5%, 10%, 20%, 30%, 40% and 50% GFP positive cells)
B3	Raji (+/-), Nalm6 (+/-), L363 (+/-) (refer to approximately 5%, 10%, 20%, 30%, 40% and 50% GFP positive cells)	Raji (+/-), Nalm6 (+/-), L363 (+/-) (refer to approximately 5%, 10%, 20%, 30%, 40% and 50% GFP positive cells)	Raji (+/-), Nalm6 (+/-), L363 (+/-) (refer to approximately 5%, 10%, 20%, 30%, 40% and 50% GFP positive cells)
B4	2+ (refer to approximately 5%, 10%, 20%, 30%, 40% and 50% GFP positive cells)	+/- (refer to approximately 5%, 10%, 20%, 30%, 40% and 50% GFP positive cells)	+ (refer to approximately 5%, 10%, 20%, 30%, 40% and 50% GFP positive cells)
